{"source": "patent US20200405868A1", "about": "(ADEPTHERA, published 2020)", "binders": {"B1": {"name": "SEQ ID NO: 226, Pal-HSYSMEHFRWGKPVGKKRRPVKVYP, conjugated gel-forming ACTH1-24 analog (peptide)", "peptide": "Palmitoyl-HSYSMEHFRWGKPVGKKRRPVKVYP"}, "B2": {"name": "SEQ ID NO: 232, Pal-HSYSEIQLMHNLGKHLNSMERVEWLRKKLQDVHNF, gel-forming PTH analog (peptide)", "peptide": "Palmitoyl-HSYSEIQLMHNLGKHLNSMERVEWLRKKLQDVHNF"}}, "key": {"[1]": {"molecular_target": "melanocortin receptor 1 (MC1R) (UniProt Q01726 1-317, limits assumed)", "sequence (Q01726 whole entry)": "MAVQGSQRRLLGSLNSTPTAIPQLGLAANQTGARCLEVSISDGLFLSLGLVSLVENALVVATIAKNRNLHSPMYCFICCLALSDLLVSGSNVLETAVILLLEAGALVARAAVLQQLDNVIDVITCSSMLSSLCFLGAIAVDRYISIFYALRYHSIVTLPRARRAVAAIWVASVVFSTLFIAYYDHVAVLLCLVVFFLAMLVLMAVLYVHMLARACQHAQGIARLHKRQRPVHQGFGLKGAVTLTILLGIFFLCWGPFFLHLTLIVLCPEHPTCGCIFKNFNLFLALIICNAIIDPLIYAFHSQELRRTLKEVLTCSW", "assay": "cell-based or functional assay"}, "PTH receptor 1 (PTHR1)": {"molecular_target": "T1, PTH receptor 1 (PTHR1) (UniProt Q03431 27-593, limits assumed)", "T1 sequence (looked up)": "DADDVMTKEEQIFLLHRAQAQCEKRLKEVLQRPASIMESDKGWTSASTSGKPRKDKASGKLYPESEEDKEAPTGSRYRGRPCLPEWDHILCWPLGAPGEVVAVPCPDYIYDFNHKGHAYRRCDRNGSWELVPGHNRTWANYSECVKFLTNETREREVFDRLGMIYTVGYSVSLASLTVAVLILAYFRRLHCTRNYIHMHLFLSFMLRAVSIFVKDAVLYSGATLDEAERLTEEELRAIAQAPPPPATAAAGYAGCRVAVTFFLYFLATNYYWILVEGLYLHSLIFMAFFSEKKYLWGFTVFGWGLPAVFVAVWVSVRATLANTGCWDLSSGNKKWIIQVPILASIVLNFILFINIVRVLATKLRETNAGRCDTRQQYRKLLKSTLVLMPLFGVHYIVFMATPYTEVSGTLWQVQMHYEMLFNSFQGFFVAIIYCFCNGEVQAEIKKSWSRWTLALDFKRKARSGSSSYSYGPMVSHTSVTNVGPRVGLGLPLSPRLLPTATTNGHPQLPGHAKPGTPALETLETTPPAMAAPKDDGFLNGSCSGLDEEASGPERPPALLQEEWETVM", "assay": "cell-based or functional assay"}}, "note": "Where no end group is shown, it is not given here. The star is where a group is joined. Palmitoyl = CCCCCCCCCCCCCCCC(=O)*"}
{"binder": "B1", "values": [{"measurement": "EC50 (nM), MC1R cAMP agonistic assay", "setting": "[1]", "value": 0.14, "unit": "nM"}]}
{"binder": "B2", "values": [{"measurement": "EC50 (nM), PTHR1 cAMP agonistic assay", "setting": "PTH receptor 1 (PTHR1)", "value": 14.1, "unit": "nM"}]}
